Test system: T1, CrsR (response regulator of CrsRK) (Actinosynnema pretiosum X47), ORF:a04a2703
T1 sequence: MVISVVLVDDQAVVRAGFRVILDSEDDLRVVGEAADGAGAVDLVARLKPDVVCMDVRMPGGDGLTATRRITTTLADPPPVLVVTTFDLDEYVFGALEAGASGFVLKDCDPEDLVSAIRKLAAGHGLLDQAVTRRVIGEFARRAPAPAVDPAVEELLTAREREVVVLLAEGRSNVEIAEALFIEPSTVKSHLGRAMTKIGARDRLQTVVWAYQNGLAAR
Test: EMSA
Settings: EMSA: 50-100 fmol probe, 0.5-1 ug CrsR, binding buffer with poly(dI-dC) (salt and pH not stated), 20 min at room temperature, 8% native PAGE; protein dialyzed …

| Sequence | binding |
| --- | --- |
| GGAGGGACGAGCGGAGACCGGGTCGCGGGACTCCACTTCGGACGGTAGGGCACGCGGGCGCCGTTGGCAGTTGCCGCTTCCACGGCTGGCGAACAAAGCGGTAATCCCTTGCGCCACAGGCGATTGACACCCCGGCGAGGCCCTGGTTTCACTGCTGTCCGCACGTCACCGGCGCGAGGAGGCCCCCGTGAAGTACATGCTGCTCATCCAC (double strand) [asm21 promoter probe] | binds |
| CGGACAGACCGATCCCCGAGTCGTGCGGGCCCGAGCCGTGGACGCGCGGGCCGTGGACGCGCGAGCCGCGACCGCCGCCCCCACGACCGCCGCCCCCACGACCGCCGCTCCGGCGACCACTGCTCCGGCGACCGCCGCTCCGGCGACCGCCGCTCCGGCGACCGCCGCTCCGGCGACCGCCGCCCCCACGACCACTCCTCCGCGCCCCCGCGTCCCCCAGGCCCCCGCGCCCCACCGGCACGTTCCGGGCGCGACCTACGACCGGGCCGTGCTGTTCGACCTCGACGGG (double strand) [asm45 promoter probe (asm45-47)] | binds |
| ACTCGGTCGCCGTGGTCATGGCTACAGCCAACAACCTCGACCATGGTGGAGGTCAACAGTAAGGTTGAGCTGGTGAGCAAGTTGCCGGAGATGTTGACCATCGGCCAGGTCGCCGAGCGCAGCGGGGTGCCCCACACGGCGCTGCGGTTCTACGAGGAGCGCGGGCTGATCGCCTCGGAGCGCACGGCGGGCAACCAGCGCCGCTACCCCAGGCACGTGCTGCGCAGGCTCGCGTTCATCCGCACCGCGCAGCGGGTCGGGCTGAGCCTGGAGGAGGTGCG (double strand) [asm13 promoter probe (asm13-15, asm10-12)] | no binding |
| CCGGTTCCCGTTCATCCAATTGTGCGCACGACCGCGCCGCCGTGCCCGCGTGCTGCGGTGATGGCCTGGGAACAGGGGGGATTAGGGGGAGGTCAAGGGGGTTGGTCGGGATCTGCGGAATCGGTAGCGTCGAATTCCGAAAGCCGGCCGCGGTGAATTCCCCCGCGCCATTTCCGCGAACGACGGGACAGGGGCTCATGGGCA (double strand) [asm43 promoter probe (asm43-44)] | binds |
| GGTCGGGCACCAGGAACACCTCGCAGAGCGCAAAGACGTGAGTGGACGGTGCGATTGTGCTGACGGCCTGACCCCGGTGGTGGGGACCGCGGCGAACCGGCTGAACGCAGGGGGGACCTAGGGGGGCGTCAGGGGGTTGGGGGGCTCTTCCGGCCGCCGTTAGCTTCGGGCCGCGCACCGGCCCCCGGAGAGCGCGCCGGACCGAGAGCAGAGACGAGGGCGACCGACCGTGCACCTGAAGGCCCCGCAGAAGCT (double strand) [asm24 promoter probe] | no binding |
| TGACGGCGTCGGGTGAGGCCGCCGCTGGCCCTGGGACGGCGCTGCGCGCCCCCTCGGACCCACCGGAGCCGCCACCACCGCTTGTCCCCTTCCACCGGGTGGGGCGCGGTCGGTAATCCGGCGGCAATTCCTTCCCCCGTCCGGGCTAGCCAGGCCCGTGCGCCCGCGTCGCGCACGGGCCAAGGTGGGTGGCTGCGCGGATGACCGGGCCCCCGAACCGGATGTGGGAGAGATGCTGCGAAGCGAC (double strand) [asmA promoter probe] | no binding |
| CGGTCCACCAGCCGCATCCCTCGCCTCCCCCGCGTCCGCCCCGCCGACCTTCAGGCATGTCAACAGCCCTGTCAGTCGTCTTGTCCACGCCCCGACCACCGCACCCCCACTGGCCGCCCACCCGCGCCGGGAAAACCACGAAGTCCCCTGCCGCGCGGGCGTCCCAGGTCGGACACTCCTGAGCGCACCCCCGCACCCGTTCCAGGAGGC (double strand) [asm7 promoter probe] | no binding |
